Source: article PMC6447653

Target: T1, AtWRI1 (Arabidopsis thaliana) (UniProt Q6X5Y6)
T1 sequence: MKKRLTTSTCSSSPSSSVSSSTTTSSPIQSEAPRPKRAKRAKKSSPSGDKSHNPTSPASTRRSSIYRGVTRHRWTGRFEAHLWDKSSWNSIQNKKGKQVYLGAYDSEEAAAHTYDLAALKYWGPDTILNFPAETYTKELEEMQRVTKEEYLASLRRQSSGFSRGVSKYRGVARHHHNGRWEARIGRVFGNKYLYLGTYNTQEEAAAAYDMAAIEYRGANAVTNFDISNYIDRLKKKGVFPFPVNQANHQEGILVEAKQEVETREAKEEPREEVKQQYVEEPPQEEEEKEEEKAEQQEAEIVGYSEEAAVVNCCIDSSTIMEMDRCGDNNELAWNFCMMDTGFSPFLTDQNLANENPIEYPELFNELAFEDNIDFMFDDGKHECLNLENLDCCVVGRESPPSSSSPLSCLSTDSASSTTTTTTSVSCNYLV
Experiment: EMSA
Settings: fEMSA: 150 mM KCl, 0.1 mM DTT, 10 mM Tris pH 7.4, 150 ng poly(dI-dC), 50 ng Cy5 probe, 10 ul, 30 min, room temperature

Sequence: TAAAAGAGTTGGGTTTCTTCGTAAGCATCGAAATCAGATTTCTTTACCAAAGAAAAAATAAAGAAAAGAAAAATATAGCAAGTACACTGCATTTCAACACTCTCATATCTCTCCTTCCTACTTCCTCGGTTTCATCGTCCACTGTCTCAA (double strand) [BCCP2up (-2/-151)]
- binding: binds
